This note sets out measurements from patent US20240035010, “COMPOSITIONS COMPRISING A VARIANT POLYPEPTIDE AND USES THEREOF” (Arbor Biotechnologies, Inc., published 2024).

What all share (test): cell_activity; PAM 5'-ATTG-3'
Common to all, as to conditions: tags: pcDNA3.1 expression

Series [1] addresses T1, variant nuclease E154G combination (P14R, D32R, I61R, E311R, E154G).
T1 chain: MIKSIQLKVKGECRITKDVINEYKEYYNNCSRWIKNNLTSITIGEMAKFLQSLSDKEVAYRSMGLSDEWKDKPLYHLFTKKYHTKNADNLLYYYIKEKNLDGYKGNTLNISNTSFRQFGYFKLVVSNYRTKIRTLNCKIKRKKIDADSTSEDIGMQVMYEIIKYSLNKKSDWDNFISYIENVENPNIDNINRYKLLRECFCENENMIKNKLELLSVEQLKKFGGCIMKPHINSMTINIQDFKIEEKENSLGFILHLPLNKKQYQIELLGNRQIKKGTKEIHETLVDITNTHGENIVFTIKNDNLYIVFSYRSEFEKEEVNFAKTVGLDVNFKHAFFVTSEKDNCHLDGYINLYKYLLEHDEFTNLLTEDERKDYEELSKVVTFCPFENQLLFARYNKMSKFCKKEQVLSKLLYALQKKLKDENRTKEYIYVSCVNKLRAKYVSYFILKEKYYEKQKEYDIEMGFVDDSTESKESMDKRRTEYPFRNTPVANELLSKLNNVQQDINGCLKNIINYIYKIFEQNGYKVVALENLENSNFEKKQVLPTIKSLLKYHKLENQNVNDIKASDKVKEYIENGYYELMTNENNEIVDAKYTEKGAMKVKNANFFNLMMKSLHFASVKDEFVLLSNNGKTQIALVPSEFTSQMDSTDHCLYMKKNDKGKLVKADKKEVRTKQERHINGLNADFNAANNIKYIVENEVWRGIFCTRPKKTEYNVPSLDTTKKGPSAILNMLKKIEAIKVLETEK

For series [2], the target named is T2, variant nuclease L38G combination (P14R, D32R, I61R, E311R, L38G).
T2 chain: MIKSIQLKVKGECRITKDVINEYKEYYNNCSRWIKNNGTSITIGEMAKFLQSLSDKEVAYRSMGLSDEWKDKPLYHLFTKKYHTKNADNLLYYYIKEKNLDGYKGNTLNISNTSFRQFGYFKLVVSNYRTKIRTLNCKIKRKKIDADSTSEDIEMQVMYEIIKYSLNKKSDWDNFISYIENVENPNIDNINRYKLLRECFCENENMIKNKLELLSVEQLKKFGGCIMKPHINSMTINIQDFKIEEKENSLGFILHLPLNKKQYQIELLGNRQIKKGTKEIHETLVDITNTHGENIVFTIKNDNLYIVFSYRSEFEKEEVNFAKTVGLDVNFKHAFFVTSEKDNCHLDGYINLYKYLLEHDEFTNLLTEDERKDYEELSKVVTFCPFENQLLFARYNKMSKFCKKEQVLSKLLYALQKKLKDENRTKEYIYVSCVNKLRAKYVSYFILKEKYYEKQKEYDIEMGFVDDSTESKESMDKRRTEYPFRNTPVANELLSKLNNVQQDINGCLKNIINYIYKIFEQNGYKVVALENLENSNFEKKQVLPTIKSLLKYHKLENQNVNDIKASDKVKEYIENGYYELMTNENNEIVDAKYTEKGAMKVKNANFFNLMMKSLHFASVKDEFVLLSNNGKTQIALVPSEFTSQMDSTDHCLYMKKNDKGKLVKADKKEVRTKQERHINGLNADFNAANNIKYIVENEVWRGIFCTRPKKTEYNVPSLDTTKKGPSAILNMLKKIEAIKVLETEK

The target of series [3] is T3, variant nuclease D55G/E736G combination (P14R, D32R, I61R, E311R, D55G, E736G).
T3 chain: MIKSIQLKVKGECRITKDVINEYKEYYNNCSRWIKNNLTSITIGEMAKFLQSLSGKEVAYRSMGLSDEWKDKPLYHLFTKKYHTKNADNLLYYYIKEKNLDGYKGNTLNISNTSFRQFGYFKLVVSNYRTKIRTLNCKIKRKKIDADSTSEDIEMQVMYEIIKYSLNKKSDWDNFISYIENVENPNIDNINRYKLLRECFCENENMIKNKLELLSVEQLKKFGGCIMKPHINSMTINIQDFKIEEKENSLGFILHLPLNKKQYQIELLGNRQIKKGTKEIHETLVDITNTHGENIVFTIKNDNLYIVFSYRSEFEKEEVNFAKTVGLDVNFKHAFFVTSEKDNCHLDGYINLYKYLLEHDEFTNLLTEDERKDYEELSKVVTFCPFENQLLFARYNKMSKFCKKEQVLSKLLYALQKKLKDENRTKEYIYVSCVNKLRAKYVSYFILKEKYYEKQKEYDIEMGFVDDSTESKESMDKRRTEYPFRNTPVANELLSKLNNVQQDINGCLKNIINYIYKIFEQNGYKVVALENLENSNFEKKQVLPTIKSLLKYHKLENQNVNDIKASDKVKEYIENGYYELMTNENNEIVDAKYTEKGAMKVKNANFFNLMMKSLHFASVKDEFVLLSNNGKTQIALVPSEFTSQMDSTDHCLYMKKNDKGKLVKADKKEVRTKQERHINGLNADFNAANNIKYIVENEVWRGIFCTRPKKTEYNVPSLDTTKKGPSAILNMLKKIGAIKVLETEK

B1: EMX1 crRNA ; EMX1 target (ssRNA ; dsDNA)
RNA: CUUGUUGUAUAUGUCCUUUUAUAGGUAUUAAACAACCCGCCGCUUCCUGAGCCAUC
DNA 1: CCGCCGCTTCCTGAGCCATC
DNA 2: GATGGCTCAGGAAGCGGCGG
Consider B1, for which the indel editing activity in series [1] is 6.04 fold of WT; in series [2], 0.16 fold of WT; in series [3], 10.5 fold of WT.
